Values quoted from earlier work, collected in patent publication US5861377A, “Antistasin type serine protease inhibitors” (Novartis AG, priority 1994, dated 1999).

Key:
Factor Xa = Factor Xa (Homo sapiens, UniProt P00742); conditions: data from Dunwiddie et al.
Trypsin = target: T1, Trypsin (Bos taurus, UniProt P00760); conditions: bovine trypsin; data from Dunwiddie et al.
T1 sequence (P00760 24-246): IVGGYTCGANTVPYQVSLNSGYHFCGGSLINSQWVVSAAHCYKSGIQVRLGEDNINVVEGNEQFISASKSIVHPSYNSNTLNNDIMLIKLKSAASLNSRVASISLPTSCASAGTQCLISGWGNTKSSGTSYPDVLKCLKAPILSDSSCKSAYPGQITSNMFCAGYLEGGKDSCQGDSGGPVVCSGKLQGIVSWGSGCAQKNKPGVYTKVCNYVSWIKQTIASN

Sequence of Factor Xa (P00742 235-488 limits assumed): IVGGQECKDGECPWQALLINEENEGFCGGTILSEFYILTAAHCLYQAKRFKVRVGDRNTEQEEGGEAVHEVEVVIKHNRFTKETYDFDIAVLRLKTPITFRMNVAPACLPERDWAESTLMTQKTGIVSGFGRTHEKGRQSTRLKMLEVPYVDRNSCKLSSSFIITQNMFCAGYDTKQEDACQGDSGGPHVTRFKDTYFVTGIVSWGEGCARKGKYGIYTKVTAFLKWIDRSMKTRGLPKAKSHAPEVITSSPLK
Sequence of Factor Xa (P00742 41-179 partner limits assumed): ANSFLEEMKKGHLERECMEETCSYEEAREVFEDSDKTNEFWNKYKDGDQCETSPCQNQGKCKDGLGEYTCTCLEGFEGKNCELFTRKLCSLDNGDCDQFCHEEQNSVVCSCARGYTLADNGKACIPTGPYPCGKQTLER

B1: Antistasin: cysteine-rich serine proteinase inhibitor of 119 amino acids from the Mexican leech Haementeria officinalis; factor Xa inhibitor (protein)
chain: EGPFGPGCEEAGCPEGSACNIITDRCTCSGVRCRVHCPHGFQRSRYGCEFCKCRKEPMKATCDISECPEGMMCSRKTNKCDCKIDINCRKTCPNGLKRDKGCEYCECRFKRKLIPRLS
- IC50 (Factor Xa): 1 nM
- IC50 (Trypsin): 5 nM
